B1: gll3146: Gloeobacter violaceus PCC7421 putative decarbonylase (SEQ ID NO: 15) (protein, listed as Gloeobacter violaceus)
chain: VNRTAPSSAALDYRSDTYRDAYSRINAIVLEGEREAHANYLTLAEMLPDHAEALKKLAAMENRHFKGFQSCARNLEVTPDDPFARAYFEQLDGNFQQAAAEGDLTTCMVIQALIIECFAIAAYNVYIPVADAFARKVTEGVVKDEYTHLNFGQQWLKERFVTVREGIERANAQNLPIVWRMLNAVEADTEVLQMDKEAIVEDFMIAYGEALGDIGFSMRDVMKMSARGLASAPRQ
B2: RS9917—12945: Synechococcus sp. RS9917 putative decarbonylase (SEQ ID NO: 25) (protein, listed as Synechococcus sp.)
chain: MTQLDFASAAYREAYSRINGVVIVGEGLANRHFQMLARRIPADRDELQRLGRMEGDHASAFVGCGRNLGVVADLPLARRLFQPLHDLFKRHDHDGNRAECLVIQGLIVECFAVAAYRHYLPVADAYARPITAAVMNDESEHLDYAETWLQRHFDQVKARVSAVVVEALPLTLAMLQSLAADMRQIGMDPVETLASFSELFREALESVGFEAVEARRLLMRAAARMV
B3: RS991709941: Synechococcus sp. RS9917 putative decarbonylase (SEQ ID NO: 23) (protein, listed as Synechococcus sp.)
chain: MPTLETSEVAVLEDSMASGSRLPDFTSEAYKDAYSRINAIVIEGEQEAHDNYIALGTLIPEQKDELARLARMEMKHMKGFTSCGRNLGVEADLPFAKEFFAPLHGNFQAALQEGKVVTCLLIQALLIEAFAISAYHIYIPVADPFARKITEGVVKDEYTHLNYGQEWLKANFEASKDELMEANKANLPLIRSMLEQVAADAAVLQMEKEDLIEDFLIAYQEALCEIGFSSRDIARMAAAALAV
B4: PMM0532: Prochlorococcus marinus CCMP1986 putative decarbonylase (SEQ ID NO: 19) (protein, listed as Prochlorococcus marinus)
chain: MQTLESNKKTNLENSIDLPDFTTDSYKDAYSRINAIVIEGEQEAHDNYISLATLIPNELEELTKLAKMELKHKRGFTACGRNLGVQADMIFAKEFFSKLHGNFQVALSNGKTTTCLLIQAILIEAFAISAYHVYIRVADPFAKKITQGVVKDEYLHLNYGQEWLKENLATCKDELMEANKVNLPLIKKMLDQVSEDASVLAMDREELMEEFMIAYQDTLLEIGLDNREIARMAMAAIV
B5: alr5283: Nostoc sp. PCC7210 putative decarbonylase (SEQ ID NO: 7) (protein, listed as Nostoc sp.)
chain: MQQVAADLEIDFKSEKYKDAYSRINAIVIEGEQEAYENYIQLSQLLPDDKEDLIRLSKMESRHKKGFEACGRNLQVSPDMEFAKEFFAGLHGNFQKAAAEGKIVTCLLIQSLIIECFAIAAYNIYIPVADDFARKITEGVVKDEYSHLNFGEVWLQKNFAQSKAELEEANRHNLPIVWKMLNQVADDAAVLAMEKEALVEDFMIQYGEALSNIGFTTRDIMRMSAYGLTAA
B6: ATCC51142 cce—0778: Cyanothece sp. ATCC51142 putative decarbonylase (SEQ ID NO: 27) (protein, listed as Cyanothece sp.)
chain: MQELALRSELDFNSETYKDAYSRINAIVIEGEQEAYQNYLDMAQLLPEDEAELIRLSKMENRHKKGFQACGKNLNVTPDMDYAQQFFAELHGNFQKAKAEGKIVTCLLIQSLIIEAFAIAAYNIYIPVADPFARKITEGVVKDEYTHLNFGEVWLKEHFEASKAELEDANKENLPLVWQMLNQVEKDAEVLGMEKEALVEDFMISYGEALSNIGFSTREIMKMSAYGLRAA
B7: Cyan7425—0398: Cyanothece sp. PCC7425 putative decarbonylase (SEQ ID NO: 29) (protein, listed as Cyanothece sp.)
chain: MPQVQSPSAIDFYSETYQDAYSRIDAIVIEGEQEAHDNYLKLTELLPDCQEDLVRLAKMEARHKKGFEACGRNLKVTPDMEFAQQFFADLHNNFQKAAAANKIATCLVIQALIIECFAIAAYNIYIPVADDFARKITENVVKDEYTHLNFGEEWLKANFDSQREEVEAANRENLPIVWRMLNQVETDAHVLGMEKEALVESFMIQYGEALENIGFSTREIMRMSVYGLSAA
B8: tll1313: Thermosynechococcus elongatus BP-1 putative decarbonylase (SEQ ID NO: 11) (protein, listed as Thermosynechococcus elongatus)
chain: MTTATATPVLDYHSDRYKDAYSRINAIVIEGEQEAHDNYIDLAKLLPQHQEELTRLAKMEARHKKGFEACGRNLSVTPDMEFAKAFFEKLRANFQRALAEGKTATCLLIQALIIESFAIAAYNIYIPMADPFARKITESVVKDEYSHLNFGEIWLKEHFESVKGELEEANRANLPLVWKMLNQVEADAKVLGMEKDALVEDFMIQYSGALENIGFTTREIMKMSVYGLTGA
B9: Cyan7425—2986: Cyanothece sp. PCC7425 putative decarbonylase (SEQ ID NO: 31) (protein, listed as Cyanothece sp.)
chain: MSDCATNPALDYYSETYRNAYRRVNGIVIEGEKQAYDNFIRLAELLPEYQAELTRLAKMEARHQKSFVACGQNLKVSPDLDFAAQFFAELHQIFASAANAGQVATCLVVQALIIECFAIAAYNTYLPVADEFARKVTASVVQDEYSHLNFGEVWLQNAFEQCKDEIITANRLALPLIWKMLNQVTGELRILGMDKASLVEDFSTRYGEALGQIGFKLSEILSLSVQGLQAVTP
B10: PMN2A—1863: Prochlorococcus mariunus NATL2A putative decarbonylase (SEQ ID NO: 21) (protein, listed as Prochlorococcus marinus)
chain: MQAFASNNLTVEKEELSSNSLPDFTSESYKDAYSRINAVVIEGEQEAYSNFLDLAKLIPEHADELVRLGKMEKKHMNGFCACGRNLAVKPDMPFAKTFFSKLHNNFLEAFKVGDTTTCLLIQCILIESFAISAYHVYIRVADPFAKRITEGVVQDEYLHLNYGQEWLKANLETVKKDLMRANKENLPLIKSMLDEVSNDAEVLHMDKEELMEEFMIAYQDSLLEIGLDNREIARMALAAVI
B11: PM1231: Prochlorococcus marinus MIT9313 putative decarbonylase (SEQ ID NO: 17) (protein, listed as Prochlorococcus marinus)
chain: MPTLEMPVAAVLDSTVGSSEALPDFTSDRYKDAYSRINAIVIEGEQEAHDNYIAIGTLLPDHVEELKRLAKMEMRHKKGFTACGKNLGVEADMDFAREFFAPLRDNFQTALGQGKTPTCLLIQALLIEAFAISAYHTYIPVSDPFARKITEGVVKDEYTHLNYGEAWLKANLESCREELLEANRENLPLIRRMLDQVAGDAAVLQMDKEDLIEDFLIAYQESLTEIGFNTREITRMAAAALVS

For the first series, the system named is E. coli MG1655 ΔfadD lacZ::Ptrc-′tesA. In words: Heterologous expression in a fatty aldehyde-producing E. coli strain with MSMEG—5739, GC-MS. It is filed as cell-based. The settings on record: decarbonylase coexpressed with carboxylic acid reductase MSMEG—5739.
With B1, the “conversion of fatty aldehydes provided by MSMEG—5739 to alkanes” value is “converted fatty aldehydes provided by MSMEG—5739 to the corresponding alkanes”. Still for that read-out and setting: next, B2: “converted fatty aldehydes provided by MSMEG—5739 to the corresponding alkanes”; B3: “converted fatty aldehydes provided by MSMEG—5739 to the corresponding alkanes”; B4: “converted fatty aldehydes provided by MSMEG—5739 to the corresponding alkanes”. Same read-out and setting: next, B5: “converted fatty aldehydes provided by MSMEG—5739 to the corresponding alkanes”.

For the next series, the system named is E. coli MG1655. In words: Coexpression of putative decarbonylase with S. elongatus PCC7942 orf1594 in E. coli, GC-MS of extracts. Format: cell-based. Particulars: coexpressed with S. elongatus PCC7942 orf1594 in E. coli MG1655, M9 minimal media. The protocol: After a 1 μl splitless injection (inlet temperature held at 300° C.) onto the GC/MS column, the oven was held at 100° C. for 3 mins. The temperature was ramped up to 320° C. at a rate of 20° C./min. The oven was held at 320° C. for an additional 5 min. The flow rate of the carrier gas helium was 1.3 ml/min. The MS quadrapole scanned from 50 to 550 m/z. Retention times and fragmentation patterns of product peaks were compared with authentic references to confirm peak identity.
The genomic DNA encoding Synechococcus elongatus PCC7942 orf1594 (YP—400611; putative aldehyde-generating enzyme) (SEQ ID NO: 65) was amplified and cloned into the NcoI and EcoRI sites of vector OP-80 (pCL1920 derivative) under the control of the Ptrc promoter. The resulting construct (“OP80-PCC7942—1594”) was transformed into E. coli MG1655 and the cells were grown at 37° C. in M9 minimal media with 1% (w/v) glucose as carbon source and supplemented with 100 μg/ml spectinomycin. When the culture reached OD600 of 0.8-1.0, it was induced with 1 mM IPTG and cells were grown for an additional 18-20 h at 37° C. Cells from 0.5 ml of culture were extracted with 0.5 ml of ethyl acetate. After sonication for 60 min, the sample was centrifuged at 15,000 rpm for 5 min. The solvent layer was analyzed by GC-MS as described in Example 1.
The genomic DNA encoding Synechococcus elongatus PCC7942 orf1593 (YP—400610; putative decarbonylase) (SEQ ID NO: 1) was amplified and cloned into the NdeI and XhoI sites of vector OP-183 (pACYC derivative) under the control of the Ptrc promoter. The resulting construct was cotransformed with OP80-PCC7942—1594 into E. coli MG1655 and the cells were grown at 37° C. in M9 minimal media supplemented with 100 μg/ml spectinomycin and 100 μg/ml carbenicillin. The cells were cultured and extracted as in Example 3 and analyzed by GC-MS as described in Example 1. […]
“PCC7942—1593: Synechococcus elongatus PCC7942 orf1593 putative decarbonylase (SEQ ID NO: 1)”: the “fatty aldehyde decarbonylase activity (alkane/alkene production)” value is “active fatty aldehyde decarbonylase”. The same measure, in the same setting: the same measure for B6: “active fatty aldehyde decarbonylase”.

On to B1, for which the “fatty aldehyde decarbonylase activity (alkane/alkene production)” value is recorded as “active fatty aldehyde decarbonylase”. B2: the “fatty aldehyde decarbonylase activity (alkane/alkene production)” value was “active fatty aldehyde decarbonylase”. The same measure, in the same setting: next, B7: “active fatty aldehyde decarbonylase”; B3: “active fatty aldehyde decarbonylase”; B8: “active fatty aldehyde decarbonylase”. Same read-out and setting: next, B9: “active fatty aldehyde decarbonylase”. Take B10: the “fatty aldehyde decarbonylase activity (alkane/alkene production)” value is given as “active fatty aldehyde decarbonylase”.

B11: the “fatty aldehyde decarbonylase activity (alkane/alkene production)” value is recorded as “active fatty aldehyde decarbonylase”. In the case of B4, the “fatty aldehyde decarbonylase activity (alkane/alkene production)” value is “active fatty aldehyde decarbonylase”. Same read-out and setting: the same measure for B5: “active fatty aldehyde decarbonylase”.

For the origin of these results see patent publication US20110124071A1, “METHODS AND COMPOSITIONS FOR PRODUCING HYDROCARBONS” (priority 2009, published 2011).
